In test [1] the test system is CD8α+ and CD8α− dendritic cells. The test can be described thus: Antigen presentation by sorted CD8α+ and CD8α− dendritic cell subsets to OTII T cells. The class given is cell-based, mouse. The conditions noted are these: for presentation to OTII T cells by individual dendritic cell subsets: CD8α+ and CD8α− subsets. Here is the method: FIG. 5 is a graph showing that both dendritic cell subsets, i.e., cells that are CD8α+ and CD8α^−, can present (OVA)-301. CD11c+ dendritic cells were stained with antibody against CD8α and I-A^b MHC class H molecules and sorted into their respective CD8α+ and CD8α^− populations. 2×10^4 cells of each subtype were incubated with 1×10^5 purified OTII T cells with graded doses of OVA or (OVA)-3-1 for eighty-four hours with [^3H]thymidine (1 μCi) added for the last twelve hours. All data points were performed in triplicate.
In the mouse, there are three subsets of dendritic cells, which are defined by their expression of the cellular antigens CD8 and CD4, namely CD8 α^+CD4^−, CD8α^−CD4^+, and CD8αCD4^14,15. Many functional differences among these subsets have been described and it has been argued that the CD8α^+ subset may be solely responsible for maintaining peripheral tolerance while the CD8α^− subset induces immunity to captured antigen^14 To determine if the high-mannose receptor was restricted to a particular subset, a fluorescence cell sorter was used to separate dendritic cells into their respective CD8α^+ and CD8α^− subsets. Each subset was then tested for its ability to present OVA and (OVA)-3-1 to OTII T cells (FIG. 5). […] Thus, both dendritic cell subsets expressed a receptor capable of binding nonasaccharide 3-1 and mediating uptake of antigens modified with this oligosaccharide.
To obtain sufficient numbers of dendritic cells for antigen presentation and cytokine analysis, C57BL/6 mice were injected with a Flt3-ligand secreting tumor cell line to promote the expansion of dendritic cells. Fourteen days after this administration the mice were sacrificed and the spleens were isolated. Dendritic cells were purified from the spleens by positive selection with anti-CD11c microbeads as described above and stained with FITC-conjugated anti-1-A^b and cychrome-conjugated anti-CD8α. Cells were then sorted on a fluorescence-activated cell sorter, a MoFlo, (Dakocytomaton, Glostrup Denmark) into CD8α^+I-A^b+ and CD8α^−I-A^b+ populations. The purity of each subset was 80% with approximately 6% cross-contamination. Dendritic cells from each subset were used in antigen proliferation assays as described above (section 3.5.5).

The test system of a further test is OTII T cells. Kind of test: In vitro restimulation with OVA peptide of T cells from immunized, rechallenged mice. Conditions: OVA peptide 100 μg mL^−1, 24 h. The format is in vivo, mouse. How it is done:
FIGS. 8A and 8B are a series of dot plots (FIG. 8A) and a graph (FIG. 8B) showing that the oligosaccharide-mediated targeting of steady state dendritic cells leads to T cell tolerance. […] 2×10^7 OTII splenocytes were adoptively transferred into B6.Ly5.2/Cr recipients and then immunized by subcutaneous injection with PBS, OVA (200 ng), (OVA)-3-1 (200 ng), (OVA)-3-1 (200 ng)+mBSA (50 μg) or OVA peptide (100 μg) in Incomplete Freund's Adjuvant. At 8 days after these initial immunizations, mice received an antigenic rechallenge of OVA peptide (100 μg) in Complete Freund's Adjuvant. On day ten mice were sacrificed and cells were isolated from the draining lymph node, total T cells were purified by negative selection and the number of OTII T cells were counted by FACS as described for FIG. 6. […]
For T cell proliferation assays in adoptive transfer experiments, inguinal lymph nodes from each experimental group (3 mice/group) were pooled and dissociated with collagenase/EDTA as described above. […] Response to OVA peptide was determined by subtracting background proliferation (no peptide) from specific, peptide-induced proliferation. […] The proliferation index was calculated as the ratio of the response to OVA peptide in an experimental group to the response to OVA peptide in the PBS group.

The next test relates to IL-4. The test can be described thus: IL-4 ELISA during in vitro peptide restimulation of T cells from immunized mice. Conditions: 24 h; lower limit of detection approximately 0.3 ng mL^−1. The format is in vivo, mouse. Here is the method: FIGS. 8A and 8B are a series of dot plots (FIG. 8A) and a graph (FIG. 8B) showing that the oligosaccharide-mediated targeting of steady state dendritic cells leads to T cell tolerance. […] 2×10^7 OTII splenocytes were adoptively transferred into B6.Ly5.2/Cr recipients and then immunized by subcutaneous injection with PBS, OVA (200 ng), (OVA)-3-1 (200 ng), (OVA)-3-1 (200 ng)+mBSA (50 μg) or OVA peptide (100 μg) in Incomplete Freund's Adjuvant. At 8 days after these initial immunizations, mice received an antigenic rechallenge of OVA peptide (100 μg) in Complete Freund's Adjuvant. On day ten mice were sacrificed and cells were isolated from the draining lymph node, total T cells were purified by negative selection and the number of OTII T cells were counted by FACS as described for FIG. 6. […] Purified T cells from each experimental group were seeded at 3×10^5 cells/well with purified […] dendritic cells (9×10^4/well) and were incubated for twenty-four hours±OVA peptide (100 μg mL^−1) with [^3H]thymidine (1 μCi) added for the last ten hours. […]
75-150 μL aliquots of supernatant were sampled from antigen presentation assays at 24, 48, and 72 hours. […] 25 μL of each supernatant were diluted 1:1 with PBS/1% BSA and analyzed in triplicate for IFN-γ, IL-10, and IL-4 using DuoSet ELISA reagents from R&D Systems. […]
On the technique in general: ELISA stands for enzyme-linked immunosorbent assay.

Entries after “also recorded” stand apart in the source; their conditions may differ.

B1: (OVA)-3-1: ovalbumin modified via SMCC with nonasaccharide 3-1, average of three saccharides per OVA (conjugate)
chain: GSIGAASMEFCFDVFKELKVHHANENIFYCPIAIMSALAMVYLGAKDSTRTQINKVVRFDKLPGFGDSIEAQCGTSVNVHSSLRDILNQITKPNDVYSFSLASRLYAEERYPILPEYLQCVKELYRGGLEPINFQTAADQARELINSWVESQTNGIIRNVLQPSSVDSQTAMVLVNAIVFKGLWEKAFKDEDTQAMPFRVTEQESKPVQMMYQIGLFRVASMASEKMKILELPFASGTMSMLVLLPDEVSGLEQLESIINFEKLTEWTSSNVMEERKIKVYLPRMKMEEKYNLTSVLMAMGITDVFSSSANLSGISSAESLKISQAVHAAHAEINEAGREVVGSAEAGVDAASVSEEFRADHPFLFCIKHIATNAVLFFGRCVSP
For the molecule B1, the “presentation to OTII T cells by individual dendritic cell subsets” value in test [1] is listed as “presented by each subset”; in test [1] (listed as (OVA)-301) it was “can present”. Also, in test [1] (sorted subsets, OTII T cells), the “efficiency of presentation by CD8α+ subset relative to CD8α− subset” value is “approximately 2 fold”. In addition, the “ability of T cells from immunized mice to respond to dendritic cell-presented OVA peptide in vitro” value in the test on OTII T cells was “significantly less responsive; also recorded: refractory to antigenic stimulation in vitro”. Besides, the “IL-4 produced during peptide stimulation in vitro” value in the test on IL-4 was “not detected”.

B2: ovalbumin (protein, UniProt P01012 2-386, looked up)
Ovalbumin: B1 chain
notes: model antigen, unmodified
As for B2, the “presentation to OTII T cells by individual dendritic cell subsets” value in test [1] is on record as “only weakly presented”. Also, the “ability of T cells from immunized mice to respond to dendritic cell-presented OVA peptide in vitro” value in the test with OTII T cells is “strongly activated”. Also, the “IL-4 produced during peptide stimulation in vitro” value with IL-4 is reported as “no IL-4”.

The record behind these values is patent US8273357B2, “Antigen-carbohydrate conjugates” (Massachusetts Institute of Technology, priority 2004, dated 2012).
